One experiment deals with Modified Phage CTPR2. Briefly: ITC; 166.6 uM Keap1 titrated into 16.66 uM CTPR or peptide; 50 mM Tris-HCl 150 mM NaCl 0.5 mM TCEP pH 8; 20 injections of 2 ul; one-site binding model.
Experiment [1] concerns the target T1, Keap1 Kelch domain construct (residues 321-624) (UniProt Q14145 321-624).
T1 construct: Keap1 Kelch domain, residues 321-624; pNIC28-BSA4 vector with a TEV cleavage site after the His-tag; gift of Alex Bullock (Structural Genomics Consortium, Oxford); No TEV cleavage is described in the purification; also called Kelch domain of Keap1; source: E. coli C41, purified (Ni-NTA, size exclusion chromatography)
The description is as above. The following applies: both partners purified.

By Kd is commonly meant the free concentration of one partner at which half of the binding sites on the other are occupied at equilibrium, for simple one-to-one binding.

T1 sequence (Q14145 321-624): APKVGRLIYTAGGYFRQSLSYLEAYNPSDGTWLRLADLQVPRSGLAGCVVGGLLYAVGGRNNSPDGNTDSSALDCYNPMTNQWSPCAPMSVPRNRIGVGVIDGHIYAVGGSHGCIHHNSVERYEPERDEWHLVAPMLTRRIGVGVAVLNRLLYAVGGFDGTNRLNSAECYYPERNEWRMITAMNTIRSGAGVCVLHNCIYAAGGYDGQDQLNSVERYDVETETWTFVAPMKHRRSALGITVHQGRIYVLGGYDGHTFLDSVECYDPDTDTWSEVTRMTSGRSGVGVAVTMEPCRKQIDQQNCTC

Regarding “Keap1 Kelch domain construct (residues 321-624) (from UniProt Q14145 321-624) (domain or fragment)”, in the experiment with Modified Phage CTPR2, the Kd is 22 nM.

B1: Ac-DPETGEL-NH2 (peptide)
peptide: Ac-DPETGEL-NH2
notes: peptide found by phage display (Hancock et al. 2012); also called phage display-derived peptide; phage display-derived free peptide; source: synthetic peptide (Cambridge Peptides Ltd)
B1: the Kd in experiment [1] was 341 nM.

B2: Ac-LDPETGELL-NH2 (peptide)
peptide: Ac-LDPETGELL-NH2
notes: phage display-derived peptide DPETGEL extended by two flanking leucines; also called modified phage display-derived peptide; Modified phage display-derived free peptide; source: synthetic peptide (Cambridge Peptides Ltd)
Consider B2, for which the Kd in experiment [1] amounted to 4.65 nM.

These data come from PMC8660007 (Protein Engineering, Design and Selection, 2021).
